We go through four molecules from patent US20250026820A1 (WUHAN YZY BIOPHARMA, published 2025).

Assay [1] addresses T1, TGFβ1 protein (GenScript Z03411) (human, UniProt P01137 279-390). The assay can be described thus: cell-based or functional assay.
Assay [2] deals with T1, TGFβ1 protein (GenScript Z03411). The assay can be described thus: ELISA; plate coated with human TGF-β1; antibody titrated; HRP anti-human Fc. As to the method: (§1) A microplate was coated with 2 μL/well of the human TGF-β1/2/3 protein solution, respectively, at 4° C. overnight; the supernatant was discarded, 300 μL of a blocking solution (PBS containing 3% BSA) was added to each well, and the plate was blocked at 37° C. for 2 h; the antibodies were gradiently diluted, and the diluent was PBS containing 1% BSA. For example, the initial concentration of the antibody dilution was 500 nM, and diluted 10-fold to obtain 8 concentration gradients. The diluted antibody was added to the well of the microplate at 200 μL per well, the plate was left to stand and incubated at room temperature for 2 h, and the supernatant was discarded; the plate was washed for 3 times with 200 μL/well PBST (PBS containing 0.1% Tween 20); a diluted HRP-labeled anti-human Fc secondary antibody (SIGMA, A8667) was added, the secondary antibody was used after a 1:20000 dilution, the diluent was PBS containing 1% BSA, the volume was 100 μL/well, and the plate was incubated at room temperature for 1 h; the plate was washed for 5 times with 200 μL/well PBST; a TMB chromogenic solution (BD, 55214) was added at 100 μL/well for color development at 37° C. for 8 min. 2 M HCl stop solution was added at 100 μL/well. After the addition of the stop solution, the 450 nm values were read using a microplate reader within 30 min. Data were analyzed using GraphPad Prism 6.0 software and avidity fitting was performed to give EC50 values.
Background: An ELISA detects its analyte on a solid surface through an enzyme-linked reagent.

In assay [3] the target is T2, TGFβ2 protein (GenScript Z03429) (human, UniProt P61812 303-414).
T2 construct: also called human TGF-β2
T2 sequence (looked up): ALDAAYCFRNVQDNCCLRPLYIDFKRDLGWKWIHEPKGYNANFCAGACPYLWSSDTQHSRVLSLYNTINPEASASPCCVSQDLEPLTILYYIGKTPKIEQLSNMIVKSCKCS
The assay can be described thus: ELISA; plate coated with human TGF-β2; antibody titrated; HRP anti-human Fc. How it is done:
as §1

For assay [4], the target named is T3, TGFβ3 protein (GenScript Z03430) (human, UniProt P10600 301-412).
T3 construct: also called human TGF-β3
T3 sequence (looked up): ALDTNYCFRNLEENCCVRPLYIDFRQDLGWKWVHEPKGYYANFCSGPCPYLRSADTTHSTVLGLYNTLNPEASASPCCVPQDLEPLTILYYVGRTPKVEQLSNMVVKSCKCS
As to the kind of experiment: ELISA; plate coated with human TGF-β3; antibody titrated; HRP anti-human Fc. How it is done:
as §1

T1 sequence (P01137 279-390 limits assumed, one chain of several): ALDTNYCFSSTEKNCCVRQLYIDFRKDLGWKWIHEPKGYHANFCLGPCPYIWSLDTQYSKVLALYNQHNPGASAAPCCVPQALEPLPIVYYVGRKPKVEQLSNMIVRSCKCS

B1: B1B8-Fc-B1B8 (Fc fusion)
heavy: EVQVVESGGGLVQPGGSLTLSCVASGFAFSFTPMRWVRQAPGKGLEWVSSISIRGDTTDYADSVKGRFTISRDNAKNTLYLQMNSLKPEDTAVYYCSRGSSISTSTERTQGTQVTVSSGGGGSDKTHTCPPCPAPPVAGPSVFLFPPKPKDTLMISRTPEVTCVVVDVSHEAPEVQFNWYVDGVEVHNAKTKPREEQFNSTFRVVSVLTVVHQDWLNGKEYKCKVSNKGLPAPIEKTISKTKGQPREPQVYTLPPSRDELTKNQVSLTCLVKGFYPSDIAVEWESNGQPENNYKTTPPVLDSDGSFFLYSKLTVDKSRWQQGNVFSCSVMHEALHNHYTQKSLSLSPGGGGGSEVQVVESGGGLVQPGGSLTLSCVASGFAFSFTPMRWVRQAPGKGLEWVSSISIRGDTTDYADSVKGRFTISRDNAKNTLYLQMNSLKPEDTAVYYCSRGSSISTSTERTQGTQVTVSS
For B1, the “EC50 of TGF-β1 inhibitory activity (TF-1 cell proliferation)” value in assay [1] came to 0.813 nM.

B2: B2H1 anti-TGFβ single domain heavy-chain antibody (variable region, linker peptide, human IgG1 heavy chain constant region) (Fc fusion)
heavy: QLQLVESGGGLVQPGESLRLSCAASGIIFSASTMAWFRQAPGKQRELVALITDGDRTNYADSVKGRFTISRDNAENTVYLQMTELKFEDTAVYYCNAFWLKAYWGQGTQVTVSS
notes: not shown: linker peptide (GGGGS)n, n=1, 2 or 3; human IgG1 heavy chain constant region, GenBank No. AK303185.1
For orientation: EC50 means the concentration that produces a half-maximal response. Lower therefore signals higher potency in that assay. Take B2: the EC50 turned out to be 130 nM in assay [2], 1.54 nM in assay [3] and 1.71 nM in assay [4].

B3: B3D2 anti-TGFβ single domain heavy-chain antibody (variable region, linker peptide, human IgG1 heavy chain constant region) (Fc fusion)
heavy: QLQLVESGGGLVQPGGSLTLSCLASGFTFSHYPMSWVRQAPGKGLEWVSVIGSDGAIKHYSDSVKGRFAISRDNAKNTLYLQMNSLKPEDTAVYYCAEGDSRYVRNRARGQGTQVTVSS
notes: as for B2
B3: the EC50 in assay [2] turned out to be 69.2 nM; in assay [3], 27.6 nM; in assay [4] it was 1.19 nM.

B4: B2A2 anti-TGFβ single domain heavy-chain antibody (variable region, linker peptide, human IgG1 heavy chain constant region) (Fc fusion)
heavy: EVQVVESGGAAVQPGESLRLSCAASGSIFNTATMGWFRQAPGKQREMVAIITDGGRTNYADSVKGRFTISRDATKNTVYLQMNSLNPGDTAVYYCNALTIVPRSSIYWGQGTQVTVSS
notes: as for B2
For B4, the 50% effective concentration (EC50) in assay [2] amounted to 48 nM; in assay [3], 1.18 nM; in assay [4], 1.3 nM.
